According to patent US20160108123A1 (Novartis, published 2016):

Legend:
[1] = molecular target: T1, human PD-L1 expressed on 300.19 cells (human, UniProt Q9NZQ7 19-290); experiment: semi-quantitative ranking in the binding studies (4th column, p-1058; FACS data, p-1056); high number = poorer binder; the column's head says only 'Rank'
T1 construct: whole, on cells; also called huPD-L1; PD-L1-expressing 300.19 cells

[2] = molecular target: T1, human PD-L1 expressed on 300.19 cells; experiment: competition FACS against Alexa 488-labeled murine BAP058 on PD-L1-expressing 300.19 cells
Experimental: (§1) Incubations with the mAb mixtures having different concentration ratios of test mAb to labeled mAb was at 4° C. for 30 min. Bound labeled murine mAb was then quantified using a FACS machine. The experiment was performed twice.

[3] = molecular target: T1, human PD-L1 expressed on 300.19 cells; experiment: blocking of PE-labelled PD-1-Ig (0.7 µg/mL) binding to PD-L1-expressing 300.19 cells, FACS, 4 C, 4 h
Experimental: (§2) Bound fluorescence was then measured using FACS and IC₅₀ values determined using Prism software.

[4] = molecular target: T2, cynomolgus PD-L1 protein (cynomolgus, UniProt G7PSE7 19-238); experiment: Biacore T-100; IgG captured by anti-human Fab on CM5 chip, PD-L1 flowed over (100-1.56 nM), 1:1 fit
T2 construct: also called Monkey PD-L1; cyno PD-L1
Experimental: (§3) Immobilization was done at 25° C. using a flow rate of 10 μl/min. […] Test antibody was captured on Flow cell FC2, FC3 and FC4. […] Run Biacore Wizards Kinetic/Affinity: association time 120 sec, dissociation 600 sec. (Running buffer HBS-EP+BSA 0.25 mg/ml, Regeneration buffer: 10 mM glycine HCl pH 2.1). Data analyses were done with Biacore T-100 Evaluation software version 2, fit on 1:1.

[5] = molecular target: rat PD-L1 protein (rat, UniProt D4AE25 19-239); experiment: as above
Experimental: as §3

[6] = molecular target: mouse PD-L1 protein (mouse, UniProt Q9EP73 19-238, limits assumed); experiment: as above
Experimental: as §3

[7] = molecular target: T3, human PD-L1 protein (human, UniProt Q9NZQ7 19-238, limits assumed); experiment: as above
T3 construct: Construct not described
Experimental: as §3

[8] = molecular target: T1, human PD-L1 expressed on 300.19 cells; experiment: FACS competition; blocking of PE-labelled PD-1-Ig (0.7 ug/mL) on PD-L1-expressing 300.19 cells
Experimental: as §2

[9] = molecular target: T1, human PD-L1 expressed on 300.19 cells; experiment: FACS competition on PD-L1-expressing 300.19 cells; competitor Alexa 488-labeled murine BAP058
Experimental: as §1

T2 sequence (G7PSE7 entry or part of it): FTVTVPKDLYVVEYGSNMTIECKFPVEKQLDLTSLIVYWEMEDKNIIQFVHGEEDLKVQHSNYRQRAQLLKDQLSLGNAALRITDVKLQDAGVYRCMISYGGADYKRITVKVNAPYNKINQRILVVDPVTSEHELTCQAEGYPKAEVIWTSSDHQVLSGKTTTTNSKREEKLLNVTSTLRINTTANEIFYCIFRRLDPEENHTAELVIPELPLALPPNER
T1 sequence (Q9NZQ7 19-290): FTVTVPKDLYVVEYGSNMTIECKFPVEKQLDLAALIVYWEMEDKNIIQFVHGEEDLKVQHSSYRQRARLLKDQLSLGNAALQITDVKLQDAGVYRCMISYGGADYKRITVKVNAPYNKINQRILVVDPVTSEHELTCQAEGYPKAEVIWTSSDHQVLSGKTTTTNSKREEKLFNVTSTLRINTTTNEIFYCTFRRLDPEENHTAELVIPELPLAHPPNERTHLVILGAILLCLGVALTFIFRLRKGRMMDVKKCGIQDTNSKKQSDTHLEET
T3 sequence (Q9NZQ7 19-238 limits assumed): as the sequence (G7PSE7 entry or part of it) above, with T33A, S34A, N62S, Q68R, R82Q, L173F, A185T, I192T, L215H counted along it
Sequence of mouse PD-L1 protein (Q9EP73 19-238 limits assumed): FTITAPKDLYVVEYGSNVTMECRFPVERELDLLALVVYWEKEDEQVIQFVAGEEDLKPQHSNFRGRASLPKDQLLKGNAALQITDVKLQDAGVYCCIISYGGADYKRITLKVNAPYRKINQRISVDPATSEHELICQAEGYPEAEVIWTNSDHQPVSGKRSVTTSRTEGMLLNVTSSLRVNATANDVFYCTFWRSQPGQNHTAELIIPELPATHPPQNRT
Sequence of rat PD-L1 protein (D4AE25 entry or part of it limits assumed): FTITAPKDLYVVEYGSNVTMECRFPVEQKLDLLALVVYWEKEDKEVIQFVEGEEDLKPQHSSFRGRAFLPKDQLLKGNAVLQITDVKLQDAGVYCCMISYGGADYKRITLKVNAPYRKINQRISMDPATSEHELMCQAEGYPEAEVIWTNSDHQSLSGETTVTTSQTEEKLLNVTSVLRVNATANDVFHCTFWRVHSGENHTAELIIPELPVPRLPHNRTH

Row | Rank [1] | Comp. binding (ratio conc. test mAb / conc. labelled murine BAP058 at the IC50) [2] | IC50 (read off the curve) [3] [µg/mL] | Kd [4] [nM] | Kd [5] [nM] | Kd [6] [nM] | Kd [7] [nM] | IC50 [8] [nM] | ratio for the IC50 value (concentration of test mAb over labelled murine BAP058) [9] | Binder
1 | 4 | 2.16 | – | – | – | – | – | – | – | BAP058-hum17 (antibody, human IgG4 S228P, kappa, Humanized IgG4(S228P)/human kappa mAb expressed in CHO cells) heavy: not shown light: EIVLTQSPDFQSVTPKEKVTITCKASQDVGTAVAWYQQKPGQAPRLLIYWASTRHTGVPSRFSGSGSGTEFTLTISSLQPDDFATYYCQQYNSYPLTFGQGTKVEIKRTVAAPSVFIFPPSDEQLKSGTASVVCLLNNFYPREAKVQWKVDNALQSGNSQESVTEQDSKDSTYSLSSTLTLSKADYEKHKVYACEVTHQGLSSPVTKSFNRGEC
2 | 2 | 1.8 | ~0.04 | – | – | – | – | – | – | BAP058-hum07 (antibody, human IgG4 S228P, kappa, V domains shown, Humanized IgG4(S228P)/human kappa mAb expressed in CHO cells) VH: QVQLVQSGAEVKKPGASVKVSCKASGYTFTSYWMYWIRQSPSRGLEWLGRIDPNSGSTKYNEKFKNRFTISRDDSKNTAYLQMNSLKTEDTAVYYCARDYRKGLYAMDYWGQGTTVTVSS VL: EIVLTQSPATLSLSPGERATLSCKASQDVGTAVAWYLQKPGQSPQLLIYWASTRHTGIPPRFSGSGYGTDFTLTINNIESEDAAYYFCQQYNSYPLTFGQGTKVEIKR
3 | 4 | 4.59 | – | – | – | – | – | – | – | BAP058-hum14 (antibody, human IgG4 S228P, kappa, V domains shown, Humanized IgG4(S228P)/human kappa mAb expressed in CHO cells) VH: QVQLVQSGAEVKKPGASVKVSCKASGYTFTSYWMYWVRQATGQGLEWMGRIDPNSGSTKYNEKFKNRFTISRDDSKNTAYLQMNSLKTEDTAVYYCARDYRKGLYAMDYWGQGTTVTVSS VL: EIVLTQSPDFQSVTPKEKVTITCKASQDVGTAVAWYQQKPGQAPRLLIYWASTRHTGVPSRFSGSGSGTEFTLTISSLQPDDFATYYCQQYNSYPLTFGQGTKVEIKR
4 | 4 | 2.47 | – | – | – | – | – | – | – | BAP058-hum16 (antibody, human IgG4 S228P, kappa, V domains shown, Humanized IgG4(S228P)/human kappa mAb expressed in CHO cells) VH: QVQLVQSGAEVKKPGASVKVSCKASGYTFTSYWMYWIRQSPSRGLEWLGRIDPNSGSTKYNEKFKNRFTISRDDSKNTAYLQMNSLKTEDTAVYYCARDYRKGLYAMDYWGQGTTVTVSS VL: EIVLTQSPDFQSVTPKEKVTITCKASQDVGTAVAWYQQKPGQAPRLLIYWASTRHTGVPSRFSGSGSGTEFTLTISSLQPDDFATYYCQQYNSYPLTFGQGTKVEIKR
5 | 4 | 2.27 | – | – | – | – | – | – | – | BAP058-hum12 (antibody, human IgG4 S228P, kappa, V domains shown, Humanized IgG4(S228P)/human kappa mAb expressed in CHO cells) VH: EVQLVQSGAEVKKPGESLRISCKGSGYTFTSYWMYWVRQAPGQGLEWMGRIDPNSGSTKYNEKFKNRVTISVDTSKNQFSLKLSSVTAADTAVYYCARDYRKGLYAMDYWGQGTTVTVSS VL: DIQMTQSPSSLSASVGDRVTITCKASQDVGTAVAWYQQKPGQAPRLLIYWASTRHTGVPSRFSGSGSGTDFTFTISSLQPEDIATYYCQQYNSYPLTFGQGTKVEIKR
6 | 2 | 2.91 | ~0.04 | 0.431 | 0.431 | 0.04 | 0.137 | – | – | BAP058-hum13 (antibody, human IgG4 S228P, kappa, V domains shown, Humanized IgG4(S228P)/human kappa mAb expressed in CHO cells) VH: EVQLVQSGAEVKKPGATVKISCKVSGYTFTSYWMYWVRQARGQRLEWIGRIDPNSGSTKYNEKFKNRFTISRDNSKNTLYLQMNSLRAEDTAVYYCARDYRKGLYAMDYWGQGTTVTVSS VL: AIQLTQSPSSLSASVGDRVTITCKASQDVGTAVAWYLQKPGQSPQLLIYWASTRHTGVPSRFSGSGSGTDFTFTISSLEAEDAATYYCQQYNSYPLTFGQGTKVEIKR
7 | – | – | ~0.04 | – | – | – | – | – | – | chimeric mAb BAP058-chi (antibody, V domains shown, also called chimeric antibody; the chimera) VH: EVQLQQSGAELVKPGASVKLSCKASGYTFTSYWMYWVKQGPGRGLEWIGRIDPNSGSTKYNEKFKNKATLTVDKSSSTAYMQLSSLTSEDSAVYYCARDYRKGLYAMDYWGQGTTVTVSS VL: DIMMTQSHKFMSTSVGDRVSITCKASQDVGTAVAWYQQKPGQSPKLLIYWASTRHTGVPDRFTGSGSGTDFTLTISNVQSEDLADYFCQQYNSYPLTFGQGTKVEIK
8 | – | – | – | – | – | – | – | 0.3 | 1.34 | murine anti-PD-L1 monoclonal antibody BAP058 (antibody, V domains shown, Murine mAb; also called murine mAb BAP058; murine parent mAb) VH: QVHLQQPGAELVKPGASVKLSCKASGYTFTSYWMYWVKQGPGRGLEWIGRIDPNSGSTKYNEKFKNKATLTVDKSSSTAYMQLSSLTSEDSAVYYCARDYRKGLYAMDYWGQGTSVTVSS VL: DIVMTQSHKFMSTSVGDRVSITCKASQDVGTAVAWYQQKPGQSPKLLIYWASTRHTGVPDRFTGSGSGTDFTLTISNVQSEDLADYFCQQYNSYPLTFGAGSKLELK
9 | 1 | 1.87 | ~0.04 | – | – | – | – | – | – | BAP058-hum03 (antibody, human IgG4 S228P, kappa, V domains shown, Humanized IgG4(S228P)/human kappa mAb expressed in CHO cells) VH: EVQLVQSGAEVKKPGATVKISCKVSGYTFTSYWMYWVRQATGQGLEWMGRIDPNSGSTKYNEKFKNRVTITADKSTSTAYMELSSLRSEDTAVYYCARDYRKGLYAMDYWGQGTTVTVSS VL: EIVLTQSPDFQSVTPKEKVTITCKASQDVGTAVAWYLQKPGQSPQLLIYWASTRHTGVPDRFSGSGSGTDFTLKISRVEAEDVGVYYCQQYNSYPLTFGQGTKVEIKR
10 | 3 | 1.13 | ~0.04 | 0.369 | 6.14 | 77.4 | 2.14 | – | – | BAP058-hum04 (antibody, human IgG4 S228P, kappa, V domains shown, Humanized IgG4(S228P)/human kappa mAb expressed in CHO cells) VH: EVQLVQSGAEVKKPGESLRISCKGSGYTFTSYWMYWVRQAPGQGLEWMGRIDPNSGSTKYNEKFKNRVTISVDTSKNQFSLKLSSVTAADTAVYYCARDYRKGLYAMDYWGQGTTVTVSS VL: EIVLTQSPDFQSVTPKEKVTITCKASQDVGTAVAWYLQKPGQSPQLLIYWASTRHTGVPSRFSGSGSGTDFTFTISSLQPEDIATYYCQQYNSYPLTFGQGTKVEIKR
11 | 4 | 1.3 | ~0.04 | 0.735 | 1.36 | 0.075 | 0.931 | – | – | BAP058-hum11 (antibody, human IgG4 S228P, kappa, V domains shown, Humanized IgG4(S228P)/human kappa mAb expressed in CHO cells) VH: EVQLVQSGAEVKKPGATVKISCKVSGYTFTSYWMYWVRQATGQGLEWMGRIDPNSGSTKYNEKFKNRVTITADKSTSTAYMELSSLRSEDTAVYYCARDYRKGLYAMDYWGQGTTVTVSS VL: DVVMTQSPLSLPVTLGQPASISCKASQDVGTAVAWYQQKPGQAPRLLIYWASTRHTGVPSRFSGSGSGTEFTLTISSLQPDDFATYYCQQYNSYPLTFGQGTKVEIKR
